Source: PMC6620040, “Structure of the DNA-Bound Spacer Capture Complex of a Type II CRISPR-Cas System” (Molecular Cell, 2019)

B1: Csn2 protein of the CRISPR3-Cas system from S. thermophilus DGCC7710 (natural protein, Streptococcus thermophilus DGCC7710)
chain: MKINFSLLDEPMEVNLGTVLVIEDVSVFAQLVKEFYQYDEQSNLTIFDSKIRSIRSSELLLITDILGYDINTSQVLKLLHTDIVSQLNDKPEVRSEIDSLVSLITDIIMAECIENELDIEYDEITLLELIKALGVRIETKSCTVFEKIFEILQIFKYLVKKRILVFVNSLSYFSKDEIYQILEYTKLSQADVLFLEPRQIEGIQQFILDKDYILMPYNN
notes: Csn2 of the type II-A CRISPR3-Cas system, Streptococcus thermophilus DGCC7710; expressed from the CRISPR3 locus plasmid; Tetramer (dimer of dimers, conformations Csn2A and Csn2B) in the structures; one Ca2+ per chain modelled; also called StCsn2; Csn2A; source: E. coli BL21 (DE3), expressed from the CRISPR3 locus plasmid (pCas1- and derivatives), in lysate; purified as a complex (Strep-Trap HP, …)
B2: Cas2 protein of the CRISPR3-Cas system from S. thermophilus DGCC7710 (natural protein, Streptococcus thermophilus DGCC7710)
chain: MSYRYMRMILMFDMPTDTAEERKAYRKFRKFLLSEGFIMHQFSVYSKLLLNHTANTAMVGRLKANNPKKGNITILTVTEKQFARMIYLYGDKNTSIANSEERLVFLGDNYCDED
notes: Cas2 of the type II-A CRISPR3-Cas system, Streptococcus thermophilus DGCC7710; expressed from the CRISPR3 locus plasmid; source: E. coli BL21 (DE3), expressed from the CRISPR3 locus plasmid (pCas1- and derivatives), in lysate; purified as a complex (Strep-Trap HP, Superdex S200) for cryo-EM
B3: Cas1 protein of the CRISPR3-Cas system from S. thermophilus DGCC7710, bearing a StrepII tag (natural protein, Streptococcus thermophilus DGCC7710)
chain: MAGWRTVVVNIHSKLSYKNNHLIFRNSYKTEMIHLSEIDILLLETTDIVLTTMLVKRLVDENILVIFCDDKRLPTAFLTPYYARHDSSLQIARQIAWKENVKCEVWTAIIAQKILNQSYYLGECSFFEKSQSIMELYHGLERFDPSNREGHSARIYFNTLFGNDFTRESDNDINAALDYGYTLLLSMFAREVVVCGCMTQIGLKHANQFNQFNLASDIMEPFRPIIDRIVYQNRHNNFVKIKKELFSIFSETYLYNGKEMYLSNIVSDYTKKVIKALNQLGEEIPEFRI
notes: Cas1 of the type II-A CRISPR3-Cas system, Streptococcus thermophilus DGCC7710; cloned into pETDUET-1 (pCas1Strep); Forms dimers with two conformations (Cas1A, Cas1B) in the structures; also called StCas1; Strep-tagged Cas1; source: E. coli BL21 (DE3), co-expressed with the rest of the CRISPR3-Cas locus, in lysate; purified as a complex (Strep-Trap HP, Superdex S200) for cryo-EM; not shown: …

Columns and labels:
[1] = target: the molecule itself; assay: cryo-EM structure; Strep-Trap- and SEC-purified Cas9-Cas1-Cas2-Csn2 sample after DNase I treatment and gel filtration (25 mM Tris pH 7.5, 150 mM NaCl, 1 mM TCEP), graphene oxide coated grids; monomer Cas1_(8)-Cas2_(4)-Csn2_(8) at 3.2 Å (D2), dimer Cas1_(24)-Cas2_(12)-Csn2_(16) at 7.2 Å (D2), filament unit at 7.7 Å (D2); duplex DNA in the central channel
[2] = target: B3; assay: pull-down; StrepII-tagged Cas1 co-expressed in E. coli with the CRISPR3-Cas locus (all four proteins; also the variants lacking Cas9, the CRISPR array or tracrRNA); StrepTrap column, then size-exclusion chromatography (Superdex S200), SDS-PAGE; 10 mM Tris-HCl pH 7.5, 300 mM KCl, 1 mM EDTA, 1 mM DTT; conditions: partners not purified

Row | Binder | stoichiometry N [1] | binding result [2]
1 | B1 | 4 | 
2 | B2 | 2 | binds
3 | B3 | 2 | 
